Reference: US12083109B2, “Neurokinin antagonists and uses thereof” (California Institute of Technology, priority 2017, dated 2024)
“Also recorded” adds a separate entry of the source.

B1: shRNA-1: small hairpin RNA for mouse Tac2 gene (SEQ ID NO: 9, 10), expressed from AAV5-H1-shRNA-CMV-zsGreen (nucleic acid)
chain 1: CCGACGTGGTTGAAGAGAACACCGCTTCCTGTCACGGTGTTCTCTTCAACCACGTCTTTTTT
chain 2: AAAAAAGACGTGGTTGAAGAGAACACCGTGACAGGAAGCGGTGTTCTCTTCAACCACGTCGG

Key:
[1] = biological target: T1, hM4DREADD in Tac2+ neurons (Homo sapiens, UniProt P08173, A203G/Y113C); experiment: Resident intruder assay, CNO silencing of Tac2+ neurons (hM4DREADD); type: in vivo, mouse; details: SIS Tac2-Cre mice, hM4DREADD in DMH; CNO 5 mg/kg i.p.
T1 construct: host or cells: Tac2+ neurons of Tac2-Cre mice (dBNSTa, DMH or CeA), transduced in vivo with AAV2-EF1a-DIO-hM4D-mCherry
T1 sequence (P08173 1-479 Y113C/A203G): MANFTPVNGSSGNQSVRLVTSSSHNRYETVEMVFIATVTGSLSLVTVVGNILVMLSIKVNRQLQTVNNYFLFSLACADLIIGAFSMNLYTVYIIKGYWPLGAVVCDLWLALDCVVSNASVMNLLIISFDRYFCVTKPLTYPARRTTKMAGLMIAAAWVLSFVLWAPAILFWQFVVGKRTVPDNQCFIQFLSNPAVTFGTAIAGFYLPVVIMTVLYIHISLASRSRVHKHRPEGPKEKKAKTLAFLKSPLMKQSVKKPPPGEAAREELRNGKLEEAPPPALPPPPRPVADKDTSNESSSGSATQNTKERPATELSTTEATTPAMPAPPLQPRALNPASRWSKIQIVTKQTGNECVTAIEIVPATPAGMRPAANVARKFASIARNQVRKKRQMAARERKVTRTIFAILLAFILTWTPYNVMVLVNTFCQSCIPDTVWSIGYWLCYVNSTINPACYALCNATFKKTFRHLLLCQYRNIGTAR
Experimental: Testing for aggression using the resident intruder assay (Blanchard et al., 2003; incorporated by reference in its entirety) was performed as previously described (Hong et al., 2015; Hong et al., 2014; Lee et al., 2014; incorporated by reference in their entirety). Briefly, experimental mice (“residents”) were transported in their homecage to a novel behavior testing room (cagemates in group housed mice were removed from the homecage prior to transport for this and all other behavioral tests), where they acclimated for 5-15 minutes. Homecages were then slotted into a customized behavioral chamber lit with a surround panel of infrared lights and equipped with two synchronized infrared video cameras (Pointgrey) placed at 90-degree angles from each other to allow for simultaneous behavior recording with a front and top view. Synchronized video was acquired using Hunter 4.0 software (custom, Pietro Perona lab, Caltech). […] Fighting bouts were scored on a frame-by-frame basis and were defined as a frame during which the resident male was engaged in an episode of biting or intense aggressive behavior immediately surrounding a biting episode. Annotation files were then batch analyzed for behavior, including number of fighting bouts, using in-house customized programs in MATLAB (A. Kennedy, Caltech). […]

Tac2 = experiment: Resident intruder assay, Tac2 shRNA knockdown; type: in vivo, mouse; details: SIS mice
From the text: Small hairpin RNA (shRNA) for the mouse Tac2 gene (NM_009312.2) were designed using the online designing tool siDirect 2.0 (http://sidirect2.mai.jp/) (Naito et al., 2009; incorporated by reference in its entirety).
8-16 week old mice were anesthetized with isoflurane and mounted in a stereotaxic apparatus (Kopf Instruments). Anesthesia was maintained throughout surgery at 1-1.5% isoflurane. The skull was exposed and small burr holes produced dorsal to each injection site using a stereotaxic mounted drill. […] Directly following surgery, mice were given a subcutaneous injection of ketoprofen (2 mg/kg) and supplied with drinking water containing 400 mg/L sulphamethoxazole and 200 mg/L ibuprofen and monitored for 7 days. […]
Testing for aggression using the resident intruder assay (Blanchard et al., 2003; incorporated by reference in its entirety) was performed as previously described (Hong et al., 2015; Hong et al., 2014; Lee et al., 2014; incorporated by reference in their entirety). […] Fighting bouts were scored on a frame-by-frame basis and were defined as a frame during which the resident male was engaged in an episode of biting or intense aggressive behavior immediately surrounding a biting episode. Annotation files were then batch analyzed for behavior, including number of fighting bouts, using in-house customized programs in MATLAB (A. Kennedy, Caltech). […]

| Molecule | aggression [1] | SIS-induced aggression (Tac2; AAV shRNA in DMH) | SIS-induced aggression (Tac2; AAV shRNA in dBNSTa) |
| --- | --- | --- | --- |
| C[N+]1([O-])CCN(C2=Nc3cc(Cl)ccc3Nc3ccccc32)CC1 [CNO, clozapine-N-oxide] | blocked; also recorded: inhibited |  |  |
| B1 |  | blocked | had no effect |
